The test has as its target T1, aryl hydrocarbon receptor nuclear translocator (ARNT) (human, UniProt P27540 1-789, limits assumed).
T1 construct: also called hARNT
Put plainly: heterodimer formation by deletion mutant; method not named.

T1 sequence (P27540 whole entry): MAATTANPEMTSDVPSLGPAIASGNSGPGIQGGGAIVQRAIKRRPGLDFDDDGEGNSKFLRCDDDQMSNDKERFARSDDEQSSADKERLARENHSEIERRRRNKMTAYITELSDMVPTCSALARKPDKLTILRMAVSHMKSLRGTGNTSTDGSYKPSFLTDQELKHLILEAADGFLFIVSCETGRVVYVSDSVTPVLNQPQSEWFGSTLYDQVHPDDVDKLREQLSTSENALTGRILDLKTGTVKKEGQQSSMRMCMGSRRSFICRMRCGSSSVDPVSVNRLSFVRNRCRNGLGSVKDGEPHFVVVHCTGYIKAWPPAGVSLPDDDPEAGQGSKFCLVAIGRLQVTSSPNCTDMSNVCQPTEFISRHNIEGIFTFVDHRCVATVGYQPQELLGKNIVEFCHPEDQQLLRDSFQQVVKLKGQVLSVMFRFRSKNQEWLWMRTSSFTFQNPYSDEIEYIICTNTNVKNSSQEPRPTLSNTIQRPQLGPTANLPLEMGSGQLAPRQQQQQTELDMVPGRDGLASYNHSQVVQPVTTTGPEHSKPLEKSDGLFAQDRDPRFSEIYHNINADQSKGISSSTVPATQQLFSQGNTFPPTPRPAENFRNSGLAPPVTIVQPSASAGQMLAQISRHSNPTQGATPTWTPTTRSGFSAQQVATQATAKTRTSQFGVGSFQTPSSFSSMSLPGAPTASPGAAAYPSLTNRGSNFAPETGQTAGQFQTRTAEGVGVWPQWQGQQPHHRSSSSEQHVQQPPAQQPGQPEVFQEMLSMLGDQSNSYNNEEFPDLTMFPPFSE

B1: EPAS1 polypeptide lacking amino acids 486-639 of SEQ ID NO: 6 (other)
chain: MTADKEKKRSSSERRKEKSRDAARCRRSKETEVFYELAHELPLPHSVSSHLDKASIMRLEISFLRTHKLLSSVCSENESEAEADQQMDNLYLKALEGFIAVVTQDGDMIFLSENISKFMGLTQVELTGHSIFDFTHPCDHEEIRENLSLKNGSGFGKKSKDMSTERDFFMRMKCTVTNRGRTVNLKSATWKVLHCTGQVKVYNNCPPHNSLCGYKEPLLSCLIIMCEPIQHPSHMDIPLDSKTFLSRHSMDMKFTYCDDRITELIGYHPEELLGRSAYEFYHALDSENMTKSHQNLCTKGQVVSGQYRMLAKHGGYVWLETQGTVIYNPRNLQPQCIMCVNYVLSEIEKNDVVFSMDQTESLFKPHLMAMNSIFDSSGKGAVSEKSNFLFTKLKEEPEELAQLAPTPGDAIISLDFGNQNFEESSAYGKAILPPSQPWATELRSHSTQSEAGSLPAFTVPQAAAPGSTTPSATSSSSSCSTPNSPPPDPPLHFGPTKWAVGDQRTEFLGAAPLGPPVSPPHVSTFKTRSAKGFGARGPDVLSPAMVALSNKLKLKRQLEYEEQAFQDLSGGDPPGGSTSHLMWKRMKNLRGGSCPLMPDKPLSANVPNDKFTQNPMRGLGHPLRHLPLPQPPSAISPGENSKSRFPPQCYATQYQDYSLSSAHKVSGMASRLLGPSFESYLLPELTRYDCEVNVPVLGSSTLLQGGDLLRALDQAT
notes: Internal deletion as worded; The C-terminal end, 870, is derived from '1-690' plus '180 C-terminal amino acids'; also called dominant negative EPAS1 mutant
With B1, the binding result is “binds”.

The values are drawn from US20030032609A1 (Harvard, published 2003).
